Assay results: the supplement of paper PMC7877785
± gives the uncertainty stated by the source.

Assay: self-splicing fitness, log relative to wild type (ln ratio); higher = more splicing; Tetrahymena group I intron in knt gene, E. coli kanamycin selection, DiMSum; sequences stand for … in CUCUCU…GGAGGGAAAAGUUAUCAGGCAUGCACCUGGUAGCUAGUCUUUAAACCAAUAGAUUGCAUCGGUUUAAAAGGCAAGACCGUCAAAUUGCGGGAAAGGGGUCAACAGCCGUUCAGUACCAAGUCUCAGGGGAAACUUUGAGAUGGCCUUGCAAAGGGUAUGGUAAUAAGCUGACGGACAUGGUCCUAACCACGCAGCCAAGUCCUAAGUCAACAGAUCUUCUGUUGAUAUGGAUGCAGUUCACAGACUAAAUGUCGGUCGGGGAAGAUGUAUUCUUCUCAUAAGAUAUAGUCGGACCUCUCCUUAAUGGGAGCUAGCGGAUGAAGUGAUGCAACACUGGAGCCGCUGGGAACUAAUUUGUAUGCGAAAGUAUAUUGAUUAGUUUUGGAGUACUCGUGGUCG
In short: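 Fitness was computed with DiMSum as the error-weighted combination of replicate fold changes, kanamycin versus none, each normalised to wild type. The library randomised all eight intron nucleotides of the P1ex region, with the intron placed in the knt kanamycin-resistance gene on pET-22b(+) in E. coli BL21(DE3). Six replicate transformations were grown overnight at 37°C or 30°C on LB agar with or without 25 μg/mL kanamycin, plus 100 μg/mL carbenicillin, 50 μM IPTG and 0.2% rhamnose. Pooled colonies were amplicon-sequenced on an Illumina HiSeq 2500.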

For GCCUAGCAAUAUUACGCAGA, the “self-splicing fitness (ln)” value (30 °C) was -3.96 ± 0.33 and the “self-splicing fitness (ln)” value (37 °C) was -2.06 ± 0.23.

In the case of GCCUAGCAAUAUUACGCAUA, the “self-splicing fitness (ln)” value (30 °C) is reported as -0.13 ± 0.18 and the “self-splicing fitness (ln)” value (37 °C) is reported as -0.428 ± 0.15.

For GCCUAGCAAUAUUACGCCCC, the “self-splicing fitness (ln)” value (30 °C) was -0.575 ± 0.27 and the “self-splicing fitness (ln)” value (37 °C) was 0.517 ± 0.49.

In the case of GCCUAGCAAUAUUACGCGGU, the “self-splicing fitness (ln)” value (30 °C) is reported as -4.03 ± 0.28 and the “self-splicing fitness (ln)” value (37 °C) is reported as -3 ± 0.26.

For GCCUAGCAAUAUUACGCGUC, the “self-splicing fitness (ln)” value (30 °C) was -1.92 ± 0.15 and the “self-splicing fitness (ln)” value (37 °C) was -0.202 ± 0.12.

With GCCUAGCAAUAUUACGGAUU the “self-splicing fitness (ln)” value (30 °C) was -0.548 ± 0.085 and the “self-splicing fitness (ln)” value (37 °C) was 0.334 ± 0.091.

For GCCUAGCAAUAUUACGGCUC, the “self-splicing fitness (ln)” value (30 °C) was -1.99 ± 0.15 and the “self-splicing fitness (ln)” value (37 °C) was -0.272 ± 0.17.

In the case of GCCUAGCAAUAUUACGGUCC, the “self-splicing fitness (ln)” value (30 °C) is reported as -3.85 ± 0.33 and the “self-splicing fitness (ln)” value (37 °C) is reported as -1.66 ± 0.24.

With GCCUAGCAAUAUUACGUAAC the “self-splicing fitness (ln)” value (30 °C) was -0.911 ± 0.17 and the “self-splicing fitness (ln)” value (37 °C) was -0.248 ± 0.2.

With GCCUAGCAAUAUUACGUAGA the “self-splicing fitness (ln)” value (30 °C) was -1.73 ± 0.16 and the “self-splicing fitness (ln)” value (37 °C) was 0.22 ± 0.13.

With GCCUAGCAAUAUUACGUAUC the “self-splicing fitness (ln)” value (30 °C) was -1.26 ± 0.076 and the “self-splicing fitness (ln)” value (37 °C) was -0.501 ± 0.094.

With GCCUAGCAAUAUUACGUCCG the “self-splicing fitness (ln)” value (30 °C) was -3 ± 0.42 and the “self-splicing fitness (ln)” value (37 °C) was -2.03 ± 0.26.

With GCCUAGCAAUAUUACGUCUU the “self-splicing fitness (ln)” value (30 °C) was -1.54 ± 0.098 and the “self-splicing fitness (ln)” value (37 °C) was -1.68 ± 0.11.

In the case of GCCUAGCAAUAUUACGUGAC, the “self-splicing fitness (ln)” value (30 °C) is reported as -1.12 ± 0.17 and the “self-splicing fitness (ln)” value (37 °C) is reported as 0.101 ± 0.17.

For GCCUAGCAAUAUUACGUUAC, the “self-splicing fitness (ln)” value (30 °C) was -2.72 ± 0.2 and the “self-splicing fitness (ln)” value (37 °C) was -1.49 ± 0.18.

In the case of GCCUAGCAAUAUUACGUUAU, the “self-splicing fitness (ln)” value (30 °C) is reported as -1.52 ± 0.12 and the “self-splicing fitness (ln)” value (37 °C) is reported as -0.39 ± 0.14.

In the case of GCGAAGCAAUAUUACGAAAC, the “self-splicing fitness (ln)” value (30 °C) is reported as -1.86 ± 0.35 and the “self-splicing fitness (ln)” value (37 °C) is reported as -0.819 ± 0.44.

For GCGAAGCAAUAUUACGAAGG, the “self-splicing fitness (ln)” value (30 °C) was -0.597 ± 0.23 and the “self-splicing fitness (ln)” value (37 °C) was -0.295 ± 0.3.

In the case of GCGAAGCAAUAUUACGAAUG, the “self-splicing fitness (ln)” value (30 °C) is reported as -1.95 ± 0.15 and the “self-splicing fitness (ln)” value (37 °C) is reported as -0.756 ± 0.17.

In the case of GCGAAGCAAUAUUACGAUGG, the “self-splicing fitness (ln)” value (30 °C) is reported as -2.12 ± 0.13 and the “self-splicing fitness (ln)” value (37 °C) is reported as -0.641 ± 0.14.

In the case of GCGAAGCAAUAUUACGAUUC, the “self-splicing fitness (ln)” value (30 °C) is reported as -1.46 ± 0.097 and the “self-splicing fitness (ln)” value (37 °C) is reported as -0.598 ± 0.13.

For GCGAAGCAAUAUUACGCCCG, the “self-splicing fitness (ln)” value (30 °C) was -2.36 ± 0.31 and the “self-splicing fitness (ln)” value (37 °C) was -1.68 ± 0.48.

With GCGAAGCAAUAUUACGCCGA the “self-splicing fitness (ln)” value (37 °C) was -1.78 ± 0.35.

With GCGAAGCAAUAUUACGCGAC the “self-splicing fitness (ln)” value (30 °C) was -1.88 ± 0.17 and the “self-splicing fitness (ln)” value (37 °C) was -1.1 ± 0.19.

With GCGAAGCAAUAUUACGCGAG the “self-splicing fitness (ln)” value (30 °C) was -2.08 ± 0.22 and the “self-splicing fitness (ln)” value (37 °C) was -3.24 ± 0.3.

For GCGAAGCAAUAUUACGCGAU, the “self-splicing fitness (ln)” value (30 °C) was -2.49 ± 0.44 and the “self-splicing fitness (ln)” value (37 °C) was -1.74 ± 0.47.

In the case of GCGAAGCAAUAUUACGCGCG, the “self-splicing fitness (ln)” value (30 °C) is reported as -2.34 ± 0.17 and the “self-splicing fitness (ln)” value (37 °C) is reported as -1.28 ± 0.22.

In the case of GCGAAGCAAUAUUACGCGCU, the “self-splicing fitness (ln)” value (30 °C) is reported as -1.85 ± 0.24 and the “self-splicing fitness (ln)” value (37 °C) is reported as -1.48 ± 0.4.

In the case of GCGAAGCAAUAUUACGCGGC, the “self-splicing fitness (ln)” value (30 °C) is reported as -3.23 ± 0.22 and the “self-splicing fitness (ln)” value (37 °C) is reported as -2.35 ± 0.25.

In the case of GCGAAGCAAUAUUACGGGAA, the “self-splicing fitness (ln)” value (30 °C) is reported as -3.48 ± 0.43 and the “self-splicing fitness (ln)” value (37 °C) is reported as -2.68 ± 0.33.

With GCGAAGCAAUAUUACGGGCG the “self-splicing fitness (ln)” value (30 °C) was -1.84 ± 0.11 and the “self-splicing fitness (ln)” value (37 °C) was -0.509 ± 0.13.

In the case of GCGAAGCAAUAUUACGGGCU, the “self-splicing fitness (ln)” value (30 °C) is reported as -2.68 ± 0.19 and the “self-splicing fitness (ln)” value (37 °C) is reported as -1.88 ± 0.17.

With GCGAAGCAAUAUUACGGGGC the “self-splicing fitness (ln)” value (30 °C) was -3.1 ± 0.24 and the “self-splicing fitness (ln)” value (37 °C) was -1.82 ± 0.23.
